Results on 1 molecule are retold here after PMC10609148 (Molecules, 2023).

Holding throughout (settings): both partners purified
Assay [1] has as its target T1, Human Aβ(1–42)-HiLyte^TM-Fluor555 (human, UniProt P05067 672-713, HiLyte^TM-Fluor555 dye covalently bound to ASP1 (NH2-terminus amino acid)).
T1 construct: Amyloid β peptide Aβ(1–42), human, cut product of the amyloid precursor protein; numbers count on: the Aβ peptide; source: bought: AnaSpec
Kind of assay: other fluorescence titration; competition: 10 nM Aβ(1–42) HiLyte-Fluor555 preincubated 15 min with rising His6, then 5 nM calbindin-D28k added; attenuation of the maximum fluorescence increase; 50 mM HEPES, 100 mM KCl, 50 µM CaCl2, pH 7.05, 24–25 °C.

In assay [2] the target is T1, Human Aβ(1–42)-HiLyte^TM-Fluor555. Kind of assay: other fluorescence titration; His6 added to 10 nM Aβ(1–42) HiLyte-Fluor555 in solution; increase in dye fluorescence (ex 520 nm, em 567 nm) at the end of the kinetics (2000 s); 50 mM HEPES, 100 mM KCl, 50 µM CaCl2, pH 7.05, 24–25 °C.
Assay [3] shares this target. Kind of assay: other fluorescence titration; competition: 10 nM Aβ(1–42) HiLyte-Fluor555 preincubated 15 min with rising His6, then 5 nM CaM added; attenuation of the maximum fluorescence increase; 50 mM HEPES, 100 mM KCl, 50 µM CaCl2, pH 7.05, 24–25 °C.

B1: hexa-histidine peptide (His6) (peptide)
peptide: HHHHHH
notes: hexa-histidine; source: bought: Quimigen
Turning to B1, the 50% inhibitory concentration (IC50) in assay [1] was approximately 100 nM; in assay [3] it was approximately 1000 nM. Also, in assay [2], the EC50 was in the range of 50 to 60 nM.

What is called IC50 is the midpoint of a concentration-inhibition curve. Higher therefore signals a need for much substance. The term EC50 denotes the midpoint of the concentration-response curve.
